According to PMC5677532 (Structure (London, England : 1993), 2017):
“And” between values parts separate entries of the source, which are not always exact repeats. Equal values may be shown once.

How the values were obtained:
native MS [1] = biological target: the molecule itself; test: native MS
SEC [2] = biological target: the molecule itself; test: SEC
native MS [3] = biological target: the molecule itself; test: native MS; remark: listed apart in the source
SEC [4] = biological target: the molecule itself; test: SEC; remark: listed apart in the source
SEC [5] = biological target: the molecule itself; test: SEC; remark: listed apart in the source
SEC [6] = biological target: the molecule itself; test: SEC; remark: listed apart in the source

Row | Protein | stoichiometry N (native MS [1]) | stoichiometry N (SEC [2]) | stoichiometry N (native MS [3]) | stoichiometry N (SEC [4]) | stoichiometry N (SEC [5]) | binding result (SEC [6])
1 | Bsc4 EC1118, C-terminally hexahistidine-tagged (natural protein, S. cerevisiae (strain EC1118), UniProt P53841 2-121, looked up) SIVLRKSNKKNKNCITSKFYTIHIIKISTPVFRAPIAIGESPYVEWSCLQVVFRKDMVTKKTTFAQLITRLNHFLCQALKRRDSKTYILCRTAVFGAMTPFSPRKSHINNKLPMQPRKKK | 2 and 6 | 4 | 7 and 8 | ≥ 2 | – | –
2 | Bsc4 S288C, C-terminally hexahistidine-tagged (natural protein, S. cerevisiae (strain S288C), UniProt P53841 2-131, looked up) SIVLRKSNKKNKNCITSKFYTIHIIKISTPVFRAPIAIGESPYVEWSCLQVVFRKDMVTKKTTFAQLITRLNHFLCQALKRRDSKTYILCRTAVFGAMTPFSPRKSHINNKLPMQPRKKKIVIIYVVRFH | – | – | – | ≥ 2 | 2 | –
3 | Bsc4 S288C, N-terminally hexahistidine-tagged (natural protein, S. cerevisiae (strain S288C), UniProt P53841 1-131, looked up) MSIVLRKSNKKNKNCITSKFYTIHIIKISTPVFRAPIAIGESPYVEWSCLQVVFRKDMVTKKTTFAQLITRLNHFLCQALKRRDSKTYILCRTAVFGAMTPFSPRKSHINNKLPMQPRKKKIVIIYVVRFH | – | – | – | – | – | binds
